In patent US20110171233A1 (RIBOVAX BIOTECHNOLOGIES S A, published 2011):

Assays:
[1] = target: hCMV envelope glycoprotein B (gB) of hCMV strain AD169 (hCMV strain AD169, UniProt P06473 32-906); experiment: cell-based or functional assay
[2] = target: hCMV envelope glycoprotein B (gB) of hCMV strain VR1814 (hCMV strain VR1814); experiment: cell-based or functional assay
[3] = target: T1, recombinant autologous interstrain fusion antigen CG3 (hCMV strain AD169; hCMV strain Towne, UniProt P06473 27-84; P13201 27-84); experiment: ELISA of the subculture supernatant on the gB recombinant antigen (CG3)
T1 construct: domain: gB Antigenic Domain 2 (AD2); Antigen of the commercial gB(AD2) ELISA (Biotest, Cat. No. 807035; Rothe M et al., 2001); also called CG3 antigen; gB(AD2)

B1: 8C10 antibody (antibody, V domains shown)
VH: EVQLVQSGAEVKKPGESLKISCKGSGYTFANYWIAWVRQMPGKGLEWMGIIYPGDSDTRYSPSFQGQVTISADKSFHTVYLQWSSLKASDTAIYFCASTSYYDFWSGYHRGREHYYYGMEVWGQGTTVIVSS
VL: TQSPATLSLSPGERVTLSCRASQSVYNYLAWYQQKPGQAPRLLIYDASNRATGIPARFSGSGSGTDFTLTISSLEPEDFAVYYCQLRRGTFGQGTKVEIKR
B1 was tested, and the “hCMV neutralizing activity, dose-response, HELF cells with hCMV strain AD169 (1,000 PFU/reaction), IC50” value [1] was 0.82 µg/mL and the “hCMV neutralizing activity, dose-response, HUVEC cells with hCMV strain VR1814 (1,000 PFU/reaction), IC50” value [2] was 0.67 µg/mL.

B2: 37B7 antibody (antibody, V domains shown)
VH: QVQLVQSGGEVKKPGASVKVSCKASGYTFTSSGINWVRQAPGQGLEWMGWINTYNGNTKYAQRLQGRVTMTTDTSTDTAYMELRSLRSDDTAVYYCARDGLNWGWGDYWGQGTLVTVSS
VL: TQSPSTLSASVGDRVIITCRASQSISSWLAWYQQKPGKAPKLLIYKASSLESGVPSRFSGSGSGTEFTLTISSLQPDDFASYYCQQCKGYPYTFGQGTKLEIKR
notes: also called antibody secreted by the 37B7 subculture
B2: no binding [3].
